B1: 4CTLAPMP02A5 (VHH)
VHH: EVQLVESGGGLVQAGGSLRLSCAASGRTNSTTLMGWSRRAPGKEREFVAAISGSGTLTSYADSVKGRFAISRDNAKNTVYLQMNSLKPEDTAIYYCAAGLTSWALIPSRTLTTWGQGTQVTVSS
B2: 4CTLAPMP2G9 (VHH)
VHH: EVQLVKSGGQLVQAGGSLRLSCAATGRTYNSYPLGWFRQAPGKEREFVAAISASGTLRAYADSVKGRFTISRDSAKNTVYLQMNNLKPEDTAVYYCARARSVGWRASHHLSDYDNWGQGTQVTVSS
B3: 4CTLAPMP02F2 (VHH)
VHH: EVQLMESGGGLVQTGGSLRLSCAASGRTFSNYTMGWFRQAPGKDREFVAAISRSGSLKAYADSVKGRFTPSRDNAKKMAYLQMNSLKPEDTAVYYCAAAPVPWGTRPSLFPYDSWGQGTQVTVSS
B4: 4CTLAPMP02F4 (VHH)
VHH: EVQLVESGGGLVQTGGSLRLSCAASGRTFSNYTMGWFRQAPGKDREFVAAISRSGALKAYADSVKGRFTPSRDNAKKMAYLQMNSLKPEDTAVYYCAAAPVPWGTRPSFFPYDSWGQGTQVTVSS
B5: 4CTLAPMP02G2 (VHH)
VHH: EVQLVESRGGLVQTGGSLRLSCAASGRTFSNYTMGWFRQAPGKDREFVAAISRSGSLKSYADSVKGRFTISRDNAKKMAYLQMNSLKPEDTAVYYCAAAPVPWGTRPSFFTYDSWGQGTQVTVSS
B6: 4CTLAPMP03C4 (VHH)
VHH: EVQLVESGGGLVQAGGSLRLSCAASGGTFSFYGMGWFRQAPGKEREFVADIRTSAGRTYYADSVKGRFTISRDNAKNTVYLQMNSLKPEDTAVYYCAAEMSGISGWDYWGQGTQVTVSS
B7: 4CTLAPMP11F1 (VHH)
VHH: EVQLVESGGGLVQAGGSLRLSCAASGGTFSFYGMGWFRQAPGKEQEFVADIRTSAGRTYYADSVKGRFTISRDNAKNTVYLQMNSLKPEDTAVYYCAAEMSGISGWDYWGQGTQVTVSS
B8: 4CTLAPMP11E3 (VHH)
VHH: EVQLVESGGGLVEPGGSLRLSCAASGSISSYNVMGWYRQAPGQQRDLVAHIASNGEIMYADSAKGRFTISRDNAKKTVYLQMNSLKPEDTAVYYCKLWVLGNDYWGQGTQVTVSS
B9: 4CTLAPMP12H2 (VHH)
VHH: EVQLVESGGGLVEPGGSLRLSCAASGSISSYNVMGWYRQAPGQQRDLVAHIASNGEIMYADSAKGRFTISRDNAKKTVYLQMNSLKPEDTAVYYCKLWVLGNDYWGQRTQVTVSS
B10: 4CTLAPMP06C10 (VHH)
VHH: EVQLVESGGGLVQAGGSLRLSCAASGRTFSNYTIAYFRQAPGREREFAAAISPHGTLRSFADSVKDRFTISRDNAKNTVWLQMNSLKLEDTAVYYCAADPSGWGLRQHSENEYPYWGLGTQVTVSS

Broadly, the IC50 is the midpoint of a concentration-inhibition curve.

cynomolgus monkey CTLA4 (human CTLA4 cDNA with S13N, I17T and L105M) on stably transfected CHO-K1 cells (human cDNA mutated to the cynomolgus monkey extracellular domain), sequence (P16410 36-223, stated change not applied): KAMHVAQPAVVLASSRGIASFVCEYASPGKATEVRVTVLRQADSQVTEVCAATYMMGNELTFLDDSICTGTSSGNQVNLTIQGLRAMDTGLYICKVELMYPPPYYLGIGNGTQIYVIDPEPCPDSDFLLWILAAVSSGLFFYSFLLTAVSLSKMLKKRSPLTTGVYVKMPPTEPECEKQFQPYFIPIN

The assay addresses cynomolgus monkey CTLA4 (human CTLA4 cDNA with S13N, I17T and L105M) on stably transfected CHO-K1 cells (human cDNA mutated to the cynomolgus monkey extracellular domain) (UniProt P16410). Briefly: FACS direct binding titration on CHO cells with cynomolgus CTLA4 (head prints IC50).
The molecule B1 showed an IC50 of 7.74 nM.

In turn, B2 registered an IC50 of 2.66 nM.

B3 yielded a half-maximal inhibitory concentration (IC50) of 2.42 nM.

B4 had an IC50 of 2.36 nM.

For the molecule B5, the IC50 was 2.08 nM.

Take B6: the IC50 amounted to 6.73 nM.

On to B7, for which the IC50 was 5.51 nM.

Consider B8, for which the IC50 is 4.5 nM.

In turn, B9 came in with an IC50 of 5.65 nM.

Molecule B10 had a half-inhibitory concentration (IC50) of 5.47 nM.
